The record followed here is paper PMC6028960, “The kinetochore proteins CENP-E and CENP-F directly and specifically interact with distinct BUB mitotic checkpoint Ser/Thr kinases” (The Journal of Biological Chemistry, 2018).

B1: eGFP-CENP-E^2070-C (domain or fragment, human, UniProt Q02224 2070-2701, looked up)
chain: RQNHQVKPEKRLLSDGQQHLTESLREKCSRIKELLKRYSEMDDHYECLNRLSLDLEKEIEFQKELSMRVKANLSLPYLQTKHIEKLFTANQRCSMEFHRIMKKLKYVLSYVTKIKEEQHESINKFEMDFIDEVEKQKELLIKIQHLQQDCDVPSRELRDLKLNQNMDLHIEEILKDFSESEFPSIKTEFQQVLSNRKEMTQFLEEWLNTRFDIEKLKNGIQKENDRICQVNNFFNNRIIAIMNESTEFEERSATISKEWEQDLKSLKEKNEKLFKNYQTLKTSLASGAQVNPTTQDNKNPHVTSRATQLTTEKIRELENSLHEAKESAMHKESKIIKMQKELEVTNDIIAKLQAKVHESNKCLEKTKETIQVLQDKVALGAKPYKEEIEDLKMKLVKIDLEKMKNAKEFEKEISATKATVEYQKEVIRLLRENLRRSQQAQDTSVISEHTDPQPSNKPLTCGGGSGIVQNTKALILKSEHIRLEKEISKLKQQNEQLIKQKNELLSNNQHLSNEVKTWKERTLKREAHKQVTCENSPKSPKVTGTASKKKQITPSQCKERNLQDPVPKESPKSCFFDSRSKSLPSPHPVRYFDNSSLGLCPEVQNAGAESVDSQPGPWHASSGKDVPECKTQ
notes: codon-optimized cDNA; N-terminal PreScission-cleavable His6-eGFP tag from the pLIB-eGFP vector; source: insect cells (baculovirus made in Sf9, Tnao38 infected), purified (HisTrap, Superose 6 SEC); not shown: eGFP, N-terminal, kept

One data set has as its target T1, BUBR1/BUB3 complex (human | , UniProt O60566 1-1050; O43684 1-328).
T1 construct: human BUB1-related (BUBR1) mitotic checkpoint Ser/Thr kinase, full-length, co-expressed with BUB3; BUB3, co-expressed with BUBR1; also called dimeric BUBR1/BUB3 complex
The experiment in a line: SEC; analytical SEC; 4 μM BUB1 or BUBR1 constructs or BUB1/BUB3 or BUBR1/BUB3 complexes mixed with 16 μM CENP-E or CENP-F proteins in 30 μl; 4 °C; Superose 6 5/150 or Superdex 75 5/150; 50 mM Hepes pH 8.0, 100 mM NaCl, 5% glycerol, 0.5 mM TCEP; fractions by SDS-PAGE. As to conditions: both partners purified. (In gel filtration, larger molecules generally elute earlier.)

The target in the data set “eGFP-CENP-E^2070-C” is B1. The description is as above. As to conditions: both partners purified.
Data set [1] concerns the molecule itself. Briefly: AUC; sedimentation velocity, 42,000 rpm, 20 °C; 6 μM mCherry-CENP-F fragment alone, scanned at 587 nm; self-association.

T1 sequence (O43684 whole entry, one chain of several): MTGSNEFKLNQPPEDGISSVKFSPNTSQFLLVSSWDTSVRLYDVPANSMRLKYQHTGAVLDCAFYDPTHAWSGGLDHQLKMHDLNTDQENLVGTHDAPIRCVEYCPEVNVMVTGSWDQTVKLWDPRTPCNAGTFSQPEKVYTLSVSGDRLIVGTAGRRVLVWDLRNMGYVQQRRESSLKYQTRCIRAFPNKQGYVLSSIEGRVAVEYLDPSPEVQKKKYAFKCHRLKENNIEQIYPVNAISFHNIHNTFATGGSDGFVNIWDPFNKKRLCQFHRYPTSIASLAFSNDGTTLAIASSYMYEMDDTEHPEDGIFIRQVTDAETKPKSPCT

For the molecule B1, the binding result in the data set with BUBR1/BUB3 complex is “binds”.

B2: BUBR1 pseudokinase domain (KinD, residues 705–1050) (domain or fragment, human, UniProt O60566 705-1050, looked up)
chain: EKLELTNETSENPTQSPWCSQYRRQLLKSLPELSASAELCIEDRPMPKLEIEKEIELGNEDYCIKREYLICEDYKLFWVAPRNSAELTVIKVSSQPVPWDFYINLKLKERLNEDFDHFCSCYQYQDGCIVWHQYINCFTLQDLLQHSEYITHEITVLIIYNLLTIVEMLHKAEIVHGDLSPRCLILRNRIHDPYDCNKNNQALKIVDFSYSVDLRVQLDVFTLSGFRTVQILEGQKILANCSSPYQVDLFGIADLAHLLLFKEHLQVFWDGSFWKLSQNISELKDGELWNKFFVRILNANDEATVSVLGELAAEMNGVFDTTFQSHLNKALWKVGKLTSPGALLFQ
notes: human BUBR1, pseudokinase domain, residues 705-1050; also called BUBR1 pseudo-kinase domain (KinD) construct; BUBR1 KinD
As for B2, in the data set with eGFP-CENP-E^2070-C, the binding result was “binds”.

B3: mCherry-CENP-F(2866–2990) (domain or fragment, human, UniProt P49454 2770-2894, looked up)
chain: LKKTKMDNLKYVNQLKKENERAQGKMKLLIKSCKQLEEEKEILQKELSQLQAAQEKQKTGTVMDTKVDELTTEIKELKETLEEKTKEADEYLDKYCSLLISHEKLEKAKEMLETQVAHLCSQQSK
notes: Dimer by sedimentation velocity AUC; source: E. coli BL21 (DE3) RP plus, purified (HisTrap, Superdex 75 SEC); not shown: mCherry, N-terminal, kept
Consider B3, for which the “stoichiometry N” value in data set [1] was 2.

B4: mCherry-CENP-F(2922–2990) (domain or fragment, human, UniProt P49454 2826-2894, looked up)
chain: QKTGTVMDTKVDELTTEIKELKETLEEKTKEADEYLDKYCSLLISHEKLEKAKEMLETQVAHLCSQQSK
notes: as for B3
On to B4, for which the “stoichiometry N” value in data set [1] was 2.

For orientation: stoichiometry N means a count of units in the complex or per binding partner.
